Data on three molecules can be found in PMC4145081 (2014).

Assay [1] concerns the target human SCARB2 on 293A-hSCARB2 cells pretreated with PNGase F (human) (UniProt Q14108).
For assay [2] the target is unchanged. Nature of the assay: flow cytometry on cells; binding of EV71 to 293A-hSCARB2 cells pretreated with or without PNGase F; details in the Extended Experimental Procedures.
The target of assay [3] is EV71 mature virions (human enterovirus 71 (EV71)).
Assay [4] has the same target. The source holds these as a separate data set.
Another assay addresses T1, EV71 mature virions (human enterovirus 71 (EV71)).
T1 chain 1: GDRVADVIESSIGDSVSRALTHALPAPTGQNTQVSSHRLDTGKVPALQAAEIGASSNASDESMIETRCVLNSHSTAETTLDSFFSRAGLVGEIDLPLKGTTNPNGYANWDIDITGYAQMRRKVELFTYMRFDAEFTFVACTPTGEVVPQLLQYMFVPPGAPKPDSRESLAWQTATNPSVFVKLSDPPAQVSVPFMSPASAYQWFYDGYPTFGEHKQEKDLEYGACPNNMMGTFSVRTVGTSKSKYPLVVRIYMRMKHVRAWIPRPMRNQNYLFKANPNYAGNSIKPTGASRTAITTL
T1 chain 2: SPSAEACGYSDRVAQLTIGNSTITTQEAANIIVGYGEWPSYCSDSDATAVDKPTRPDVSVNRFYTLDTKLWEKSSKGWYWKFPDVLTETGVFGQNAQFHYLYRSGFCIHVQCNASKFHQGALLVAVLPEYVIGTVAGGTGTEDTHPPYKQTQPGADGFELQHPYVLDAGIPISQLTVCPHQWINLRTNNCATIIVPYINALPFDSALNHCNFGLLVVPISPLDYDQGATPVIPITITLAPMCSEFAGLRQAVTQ
T1 chain 3: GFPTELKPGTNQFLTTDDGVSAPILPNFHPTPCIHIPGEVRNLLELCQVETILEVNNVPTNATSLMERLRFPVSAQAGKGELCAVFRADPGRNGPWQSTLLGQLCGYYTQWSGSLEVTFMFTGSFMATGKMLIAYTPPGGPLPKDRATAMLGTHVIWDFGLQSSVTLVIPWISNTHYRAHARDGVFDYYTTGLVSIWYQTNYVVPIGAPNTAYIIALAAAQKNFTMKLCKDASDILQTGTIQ
T1 chain 4: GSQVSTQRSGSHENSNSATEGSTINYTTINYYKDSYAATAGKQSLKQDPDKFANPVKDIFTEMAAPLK
Nature of the assay: ITC. A general note: ITC needs no label: the signal is the heat of the interaction.

Chain of human SCARB2 on 293A-hSCARB2 cells pretreated with PNGase F (human) (Q14108 whole entry): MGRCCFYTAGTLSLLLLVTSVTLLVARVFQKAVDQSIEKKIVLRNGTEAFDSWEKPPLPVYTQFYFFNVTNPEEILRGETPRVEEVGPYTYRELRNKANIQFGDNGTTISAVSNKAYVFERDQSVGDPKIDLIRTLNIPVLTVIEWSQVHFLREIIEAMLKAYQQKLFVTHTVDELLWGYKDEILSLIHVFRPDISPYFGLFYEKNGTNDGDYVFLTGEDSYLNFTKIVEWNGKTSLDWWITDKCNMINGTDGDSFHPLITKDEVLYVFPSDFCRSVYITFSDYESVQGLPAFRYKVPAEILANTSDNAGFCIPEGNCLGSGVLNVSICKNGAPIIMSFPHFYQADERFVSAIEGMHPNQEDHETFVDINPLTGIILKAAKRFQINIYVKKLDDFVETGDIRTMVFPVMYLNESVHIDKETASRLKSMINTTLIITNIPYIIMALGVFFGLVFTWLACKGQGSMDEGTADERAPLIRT

Turning to EV71 mature virions (complex), the decrease in infection efficiency of EV71-GFP on 293A-hSCARB2 cells pretreated with PNGase F, against untreated cells (GFP-positive cells 16 h post infection) in assay [1] was 40%. Further, the reduction of binding against untreated cells in assay [2] worked out at 30%.

“recombinant SCARB2-His-tag protein (ectodomain of scavenger receptor class B 2)”: the [3H]-labeled sphingosine removed from EV71 mature virions by excess recombinant SCARB2 (60:1) at pH 5.0, 37°C, 1-4 h in assay [3] is 90%. The molecule also registered a conversion of mature virions (~160 S) into ~125 S particles (A particles) by sedimentation velocity AUC after 1 h at 37°C with SCARB2 at pH 7.4 in assay [4] of 5%.

WSQVHFLREIIEAMLKAYQQK [synthesized peptide of SCARB2 (aa 146-166)] yielded a Kd with EV71 mature virions of 4.2 µM.

The Kd is the constant that tells how readily two partners part at equilibrium. Read a low Kd as a tighter complex.
